In patent publication US20210147570A1 (Bristol-Myers Squibb, published 2021):

T1: soluble CD73 in human serum/peripheral blood (human, UniProt P21589 27-549, limits assumed)
T1 construct: also called sCD73; free soluble CD73
T1 sequence (looked up): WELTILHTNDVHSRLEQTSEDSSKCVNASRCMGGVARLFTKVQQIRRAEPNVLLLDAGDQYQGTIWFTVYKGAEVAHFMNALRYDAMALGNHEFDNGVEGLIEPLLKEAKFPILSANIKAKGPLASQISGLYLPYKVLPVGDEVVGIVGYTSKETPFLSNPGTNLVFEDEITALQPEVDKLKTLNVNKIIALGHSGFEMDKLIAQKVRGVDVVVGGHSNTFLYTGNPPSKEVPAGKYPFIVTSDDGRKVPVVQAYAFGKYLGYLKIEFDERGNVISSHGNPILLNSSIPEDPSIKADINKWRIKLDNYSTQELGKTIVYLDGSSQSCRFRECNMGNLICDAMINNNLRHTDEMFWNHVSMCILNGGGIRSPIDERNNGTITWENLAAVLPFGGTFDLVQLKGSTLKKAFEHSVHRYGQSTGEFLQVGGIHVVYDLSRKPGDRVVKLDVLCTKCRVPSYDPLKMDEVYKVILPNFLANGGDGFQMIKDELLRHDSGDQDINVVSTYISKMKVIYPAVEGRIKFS

T2: cynomolgus CD73 (in cell lines) (cynomolgus monkey, UniProt A0A2K5V5U7 27-549)
T2 construct: whole, on cells; also called Cyno CD73
T2 sequence: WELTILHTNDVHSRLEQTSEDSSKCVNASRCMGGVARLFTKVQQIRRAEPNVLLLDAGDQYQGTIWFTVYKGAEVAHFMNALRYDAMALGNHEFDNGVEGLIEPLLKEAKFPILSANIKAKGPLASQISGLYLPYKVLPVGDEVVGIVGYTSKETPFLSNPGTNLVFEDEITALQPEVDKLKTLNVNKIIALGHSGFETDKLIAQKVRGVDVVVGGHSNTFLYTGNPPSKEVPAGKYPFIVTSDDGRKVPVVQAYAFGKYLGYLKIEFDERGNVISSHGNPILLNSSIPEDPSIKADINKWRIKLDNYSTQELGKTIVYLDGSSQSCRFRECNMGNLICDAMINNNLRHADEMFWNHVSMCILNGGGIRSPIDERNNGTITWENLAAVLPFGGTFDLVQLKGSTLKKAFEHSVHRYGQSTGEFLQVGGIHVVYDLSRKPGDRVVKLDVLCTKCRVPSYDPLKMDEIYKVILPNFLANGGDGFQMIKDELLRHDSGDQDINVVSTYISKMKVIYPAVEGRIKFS


Tests used:
[1] = target: T1, soluble CD73 in human serum/peripheral …; assay: free (not bound by CD73.A) sCD73 ECL immunoassay on patient samples
Experimental: (§1) The free sCD73 assay utilizes biotinylated anti-CD73 antibody 6E11 (SEQ ID NOs: 28 and 29) to capture drug-unbound sCD73 from the test samples (as it competes with CD73.A for binding to hCD73). MSD Streptavidin Gold assay plates were coated overnight at 2 to 8° C. with 50 μL/well of biotinylated 6E11 diluted to a final concentration of 0.5 μg/mL in 1× DPBS buffer. The following day, the wells were washed using PBS with 0.05% Tween 20 and 0.5× StabilCoat prepared in water was added to wells at 100 μL per well and incubated at room temperature for one hour. Wells were then aspirated and plates were dried and pouched with desiccant. Test samples drawn from study animals were kept frozen at −70° C. […] Bound sCD73 was subsequently detected using ruthenylated anti-CD73 antibody 4C3 (SEQ ID NOs: 38 and 39) (previously prepared with 0.1% Proclin 300 at working concentration) at a final concentration of 0.125 μg/ml in Starting Block (PBS) at 50 μL per well. The plates were incubated for one hour at 25° C. with shaking, at about 500 rpm, and then washed again before adding 1× MSD Read Buffer prepared in water and then read on MSD Sector Imager 600 by electrochemiluminescenece (ECL) technology. […] Test samples were quantified using a 4-parameter logistic fit regression model.

[2] = target: T2, cynomolgus CD73 (in cell lines); assay: CD73 binding in cell lines (cyno), median EC50; method not stated
[3] = target: T1, soluble CD73 in human serum/peripheral …; assay: MSD ECL sandwich immunoassay, 6E11 as capture
Experimental: as §1

| binding result [1] | EC50 [2] [nM] | binding result [3] | Binder |
| --- | --- | --- | --- |
| binds | 0.3 |  | CD73.4-IgG2C219S.IgG1.1f (antibody, V domains shown, IgG2 CH1/hinge (C219S) with IgG1.1f CH2/CH3 hybrid constant region; also called CD73.A; CD73.4-IgG2CS-IgG1.1f) VH: QVQLVESGGGVVQPGRSLRLSCAASGFTFSNYGMHWVRQAPGKGLEWVAVILYDGSNKYYPDSVKGRFTISRDNSKNTLYLQMNSLRAEDTAVYYCARGGSSWYPDSFDIWGQGTMVTVSS VL: DIQMTQSPSSLSASVGDRVTITCRASQGISSWLAWYQQKPEKAPKSLIYAASSLQSGVPSRFSGSGSGTDFTLTISSLQPEDFATYYCQQYNSYPLTFGGGTKVEIKR |
|  |  | binds | anti-CD73 antibody 6E11 (antibody, human IgG1, kappa, V domains shown, biotinylated (sites not given), Used as the biotinylated capture reagent on streptavidin plates; also called biotinylated 6E11) VH: EVQLVESGGALVQPGRSLRLSCAASGFTFDDYAMHWVRQAPGKGLEWVSGITWNSGGIGYADSVKGRFTISRDNAKNSLYLQMNSLRAEDTALYYCAKDRYYSSWLLFDNWGQGILVTVSS VL: not shown |
